In patent US20190330374A1:

Experiments:
[1] = biological target: OX40 on activated T cells (PBMCs activated with Human T cell Activator Dynabeads) (human) (UniProt P43489); assay: flow cytometry on activated PBMCs, CD8+ T cells with low OX40
[2] = biological target: OX40 on activated T cells (PBMCs activated with Human T cell Activator Dynabeads) (human) (UniProt P43489); assay: flow cytometry on activated PBMCs, CD4+ T cells with high OX40
OX40-Fc (R&D) (human) [3] = biological target: OX40-Fc (R&D) (human) (UniProt P43489); assay: ELISA, plate coated with 0.4 ng/mL OX40-Fc, anti-human kappa-HRP detection
OX40-Fc (R&D) (human) [4] = biological target: OX40-Fc (R&D) (human) (UniProt P43489); assay: ELISA, plate coated with 1.6 ng/mL OX40-Fc, anti-human kappa-HRP detection

Sequence of OX40 on activated T cells (PBMCs activated with Human T cell Activator Dynabeads) (human) (P43489 29-277): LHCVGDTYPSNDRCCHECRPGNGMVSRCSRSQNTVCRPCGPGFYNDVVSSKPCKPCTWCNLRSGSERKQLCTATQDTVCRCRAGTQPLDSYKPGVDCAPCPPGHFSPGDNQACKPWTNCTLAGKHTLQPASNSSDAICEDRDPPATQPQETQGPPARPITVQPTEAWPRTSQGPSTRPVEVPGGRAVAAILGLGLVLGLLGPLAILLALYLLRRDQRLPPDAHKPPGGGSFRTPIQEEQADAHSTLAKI
Sequence of OX40-Fc (R&D) (human) (P43489 29-216 limits assumed): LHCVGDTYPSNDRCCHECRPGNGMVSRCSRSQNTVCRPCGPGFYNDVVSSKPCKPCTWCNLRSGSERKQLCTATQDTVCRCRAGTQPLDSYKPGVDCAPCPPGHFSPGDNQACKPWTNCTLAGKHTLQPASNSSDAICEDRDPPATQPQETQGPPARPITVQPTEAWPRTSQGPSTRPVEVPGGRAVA

fold better binding than Anti-OX40 #1-IgG (ratio of Kd, IgG to IgM) [1]: 25 fold
fold better binding than Anti-OX40 #1-IgG (ratio of Kd, IgG to IgM) [2]: 6 fold
fold better binding than Anti-OX40 #1-IgG (ratio of Bmax) (OX40-Fc (R&D) (human) [3]): 28 fold
fold better binding than Anti-OX40 #1-IgG (ratio of Bmax) (OX40-Fc (R&D) (human) [4]): 1.2 fold
B1: Anti-OX40 #1-IgM (antibody, V domains shown)
VH: QVQLQESGPGLVKPSQTLSLTCAVYGGSFSSGYWNWIRKHPGKGLEYIGYISYNGITYHNPSLKSRITINRDTSKNQYSLQLNSVTPEDTAVYYCARYKYDYDGGHAMDYWGQGTLVTVSS
VL: DIQMTQSPSSLSASVGDRVTITCRASQDISNYLNWYQQKPGKAPKLLIYYTSKLHSGVPSRFSGSGSGTDYTLTISSLQPEDFATYYCQQGSALPWTFGQGTKVEIK
